Values quoted from earlier work in paper PMC8990303.
pKd, pKi: −log10 of the molar value. Where two headings read alike, the source gives them in different places.

Legend:
[1] = target: Porcine pancreatic alpha-amylase (PPA) (Sus scrofa) (UniProt P00690)
[2] = target: Human salivary alpha-amylase (HSA) (Homo sapiens) (UniProt P0DUB6)
[3] = target: Yellow mealworm alpha-amylase (TMA) (Tenebrio molitor) (UniProt P56634)
[4] = target: Bovine pancreatic trypsin (Bos taurus) (UniProt P00760)
[5] = target: Factor XIIa (Homo sapiens) (UniProt P00748)
[6] = target: Factor XIa (Homo sapiens) (UniProt P03951)
[7] = target: Yellow mealworm alpha-amylase (TMA) (Tenebrio molitor) (UniProt P56634); remark: listed apart in the source
[8] = target: Porcine pancreatic alpha-amylase (PPA) (Sus scrofa) (UniProt P00690); remark: listed apart in the source
[9] = target: Bovine trypsin (Bos taurus) (UniProt P00760)
[10] = target: Porcine trypsin (Sus scrofa) (UniProt P00761)
[11] = target: Porcine alpha-amylase (Sus scrofa) (UniProt P00690)
[12] = target: Porcine trypsin (Sus scrofa) (UniProt P00761); remark: listed apart in the source
[13] = target: Porcine alpha-amylase (Sus scrofa) (UniProt P00690); remark: listed apart in the source

Chain of UniProt P56634 (P56634 whole entry): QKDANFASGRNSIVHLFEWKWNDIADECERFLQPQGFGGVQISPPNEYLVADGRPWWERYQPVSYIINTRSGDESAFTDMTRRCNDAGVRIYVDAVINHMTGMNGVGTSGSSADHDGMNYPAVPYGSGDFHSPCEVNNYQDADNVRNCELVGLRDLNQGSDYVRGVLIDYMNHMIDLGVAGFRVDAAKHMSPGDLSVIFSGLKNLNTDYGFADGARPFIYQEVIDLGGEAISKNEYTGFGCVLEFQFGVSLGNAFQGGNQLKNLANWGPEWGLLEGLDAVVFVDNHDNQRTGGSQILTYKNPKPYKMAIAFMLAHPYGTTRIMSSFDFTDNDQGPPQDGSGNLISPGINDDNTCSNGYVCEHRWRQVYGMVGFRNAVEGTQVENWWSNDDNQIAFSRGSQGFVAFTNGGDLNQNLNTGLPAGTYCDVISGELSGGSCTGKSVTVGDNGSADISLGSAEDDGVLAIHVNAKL
Chain of UniProt P00761 (P00761 9-231): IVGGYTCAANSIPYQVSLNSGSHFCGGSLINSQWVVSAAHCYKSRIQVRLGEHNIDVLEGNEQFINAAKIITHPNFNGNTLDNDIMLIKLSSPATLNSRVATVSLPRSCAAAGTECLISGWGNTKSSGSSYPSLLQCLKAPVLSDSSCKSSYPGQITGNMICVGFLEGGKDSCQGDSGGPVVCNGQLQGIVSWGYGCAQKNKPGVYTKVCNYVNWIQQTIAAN
Chain of UniProt P0DUB6 (P0DUB6 16-511): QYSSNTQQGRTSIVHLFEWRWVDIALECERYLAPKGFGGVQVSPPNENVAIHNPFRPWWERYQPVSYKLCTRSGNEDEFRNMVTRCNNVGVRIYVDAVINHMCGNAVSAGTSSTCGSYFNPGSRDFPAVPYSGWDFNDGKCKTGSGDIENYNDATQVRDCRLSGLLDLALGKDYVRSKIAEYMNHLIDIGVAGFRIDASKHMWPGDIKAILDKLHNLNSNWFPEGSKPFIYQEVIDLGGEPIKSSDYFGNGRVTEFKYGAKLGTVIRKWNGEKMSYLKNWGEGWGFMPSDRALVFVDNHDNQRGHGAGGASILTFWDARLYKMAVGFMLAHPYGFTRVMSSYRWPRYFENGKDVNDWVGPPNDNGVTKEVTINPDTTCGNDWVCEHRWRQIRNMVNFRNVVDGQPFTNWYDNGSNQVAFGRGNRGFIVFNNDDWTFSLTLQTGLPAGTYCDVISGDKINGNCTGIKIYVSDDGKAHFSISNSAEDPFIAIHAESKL
Chain of UniProt P00748 (P00748 whole entry, looked up): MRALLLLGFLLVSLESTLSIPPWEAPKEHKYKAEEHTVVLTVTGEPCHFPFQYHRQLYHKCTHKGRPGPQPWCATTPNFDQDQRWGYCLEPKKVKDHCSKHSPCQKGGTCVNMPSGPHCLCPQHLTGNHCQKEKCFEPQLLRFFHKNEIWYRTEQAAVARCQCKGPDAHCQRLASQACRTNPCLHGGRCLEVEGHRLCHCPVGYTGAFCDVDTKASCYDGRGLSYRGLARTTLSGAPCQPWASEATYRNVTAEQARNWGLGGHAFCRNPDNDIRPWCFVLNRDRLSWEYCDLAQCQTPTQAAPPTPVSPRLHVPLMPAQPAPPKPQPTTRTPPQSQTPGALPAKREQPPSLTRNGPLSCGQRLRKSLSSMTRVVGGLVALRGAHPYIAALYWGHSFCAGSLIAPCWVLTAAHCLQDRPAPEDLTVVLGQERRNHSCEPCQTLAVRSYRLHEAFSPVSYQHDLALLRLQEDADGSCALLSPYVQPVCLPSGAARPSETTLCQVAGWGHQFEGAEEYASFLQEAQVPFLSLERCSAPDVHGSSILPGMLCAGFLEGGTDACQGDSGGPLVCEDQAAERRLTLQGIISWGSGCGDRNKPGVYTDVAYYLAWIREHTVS
Chain of UniProt P03951 (P03951 388-625): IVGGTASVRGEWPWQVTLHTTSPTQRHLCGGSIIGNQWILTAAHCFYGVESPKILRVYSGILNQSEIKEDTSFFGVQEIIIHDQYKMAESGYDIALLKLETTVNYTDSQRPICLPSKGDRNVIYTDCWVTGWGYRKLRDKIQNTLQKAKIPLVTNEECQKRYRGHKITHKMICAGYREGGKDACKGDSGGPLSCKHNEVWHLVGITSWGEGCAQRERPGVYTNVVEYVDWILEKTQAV

0.19 alpha-amylase inhibitor (from UniProt P01085)
pKi [1]: 7.24 | pKi [2]: 9.54 | pKi [3]: 9.07

Corn Hageman factor inhibitor (CHFI) (from UniProt P01088)
pKi [4]: 8.68 | pKi [5]: 9.00 | pKi [6]: 5.27

0.28 alpha-amylase inhibitor (WMAI-1) (from UniProt P01083)
pKi [7]: 9.89

Ragi bifunctional alpha-amylase/trypsin inhibitor (RBI) (from UniProt P01087)
pKi [8]: 7.96 | pKi [9]: 8.92

CM3 (from UniProt P17314)
pKi [10]: 7.98 | pKi [11]: 6.22 | pKd [12]: 7.44 | pKd [13]: 6.47
